From patent US20230381333A1 (HANMI PHARM, published 2023)
Bridge positions count the residues as written; N and C are the ends. Square brackets hold non-standard residues; d marks the D form. Ends that are not written are not given here. * marks the point of attachment. Acetyl(2-(4-imidazolyl)) = O=C(Cc1c[nH]cn1)*; Aib = CC(C)(N)C(=O)O

Columns and labels:
Experiment in all cases: cell-based or functional assay
human GIP receptor = biological target: T1, human GIP receptor (human, UniProt P48546 22-466)
T1 sequence (looked up): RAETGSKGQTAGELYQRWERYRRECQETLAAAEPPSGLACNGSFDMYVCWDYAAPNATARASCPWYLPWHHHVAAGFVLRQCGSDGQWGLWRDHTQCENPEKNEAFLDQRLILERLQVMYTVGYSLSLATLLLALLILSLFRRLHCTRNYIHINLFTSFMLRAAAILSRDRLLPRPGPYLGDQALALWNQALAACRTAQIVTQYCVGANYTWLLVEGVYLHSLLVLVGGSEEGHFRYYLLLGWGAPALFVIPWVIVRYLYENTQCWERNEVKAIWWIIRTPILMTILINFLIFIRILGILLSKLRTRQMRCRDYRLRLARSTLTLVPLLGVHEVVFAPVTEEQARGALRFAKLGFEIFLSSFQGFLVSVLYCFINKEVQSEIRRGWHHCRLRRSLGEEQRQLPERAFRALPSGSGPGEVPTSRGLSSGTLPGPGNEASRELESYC

human GLP-1 receptor = human GLP-1 receptor (human, UniProt P43220 24-463)
human GCG receptor = human GCG receptor (human, UniProt P47871 26-477)
Chain of human GCG receptor (P47871 26-477): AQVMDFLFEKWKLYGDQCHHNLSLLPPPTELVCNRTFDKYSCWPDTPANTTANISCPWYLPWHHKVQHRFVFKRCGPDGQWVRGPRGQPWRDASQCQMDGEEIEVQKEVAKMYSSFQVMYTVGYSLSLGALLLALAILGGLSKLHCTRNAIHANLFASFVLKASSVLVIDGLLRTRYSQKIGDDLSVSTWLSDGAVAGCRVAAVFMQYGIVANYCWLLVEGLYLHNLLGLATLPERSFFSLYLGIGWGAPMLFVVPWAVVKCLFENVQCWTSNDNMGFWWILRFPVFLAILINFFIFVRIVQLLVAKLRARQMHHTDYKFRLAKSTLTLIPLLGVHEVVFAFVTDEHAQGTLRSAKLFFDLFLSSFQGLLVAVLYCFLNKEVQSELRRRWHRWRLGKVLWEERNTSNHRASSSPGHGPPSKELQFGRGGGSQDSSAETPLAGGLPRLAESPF

B1: triple agonist of SEQ ID NO: 67 (peptide)
peptide: Y[Aib]QGTFTSDYSKYLDECAAKDFVQWLLDHHPSSGQPPPS
modifications: also: ring formation (underlined residues), positions not given here
Human GIP receptor
  In vitro activity compared to native-type peptide (%), vs GIP: 39.8%
Human GLP-1 receptor
  In vitro activity compared to native-type peptide (%), vs GLP-1: 28.5%
Human GCG receptor
  In vitro activity compared to native-type peptide (%), vs Glucagon: 46.2%

B2: triple agonist of SEQ ID NO: 62 (peptide)
peptide: {Acetyl(2-(4-imidazolyl))}-[Aib]QGTFTSDKSKYLDERAAQDFVQWLLDGGPSSGAPPPS
Human GIP receptor
  In vitro activity compared to native-type peptide (%), vs GIP: < 0.1%
Human GLP-1 receptor
  In vitro activity compared to native-type peptide (%), vs GLP-1: 5.2%
Human GCG receptor
  In vitro activity compared to native-type peptide (%), vs Glucagon: < 0.1%

B3: triple agonist of SEQ ID NO: 76 (peptide)
peptide: Y[Aib]QGTFTSDYSKYLDEKRAKDFVQWLLDHHPSSGQPPPSC
modifications: bridge 16-20
Human GIP receptor
  In vitro activity compared to native-type peptide (%), vs GIP: 11.7%
Human GLP-1 receptor
  In vitro activity compared to native-type peptide (%), vs GLP-1: 10.3%
Human GCG receptor
  In vitro activity compared to native-type peptide (%), vs Glucagon: 47.6%

B4: triple agonist of SEQ ID NO: 77 (peptide)
peptide: Y[Aib]QGTFTSDYSKYLDEKAAKDFVQWLLDHHPSSGQPPPSC
modifications: bridge 16-20
Human GIP receptor
  In vitro activity compared to native-type peptide (%), vs GIP: 35.5%
Human GLP-1 receptor
  In vitro activity compared to native-type peptide (%), vs GLP-1: 38.7%
Human GCG receptor
  In vitro activity compared to native-type peptide (%), vs Glucagon: 12.2%

B5: triple agonist of SEQ ID NO: 74 (peptide)
peptide: {Acetyl(2-(4-imidazolyl))}-[Aib]QGTFTSDYSKCLDEKRAKEFVQWLLDHHPSSGQPPPS
modifications: bridge 15-19
Human GIP receptor
  In vitro activity compared to native-type peptide (%), vs GIP: 1%
Human GLP-1 receptor
  In vitro activity compared to native-type peptide (%), vs GLP-1: 12.9%
Human GCG receptor
  In vitro activity compared to native-type peptide (%), vs Glucagon: 0.9%

B6: triple agonist of SEQ ID NO: 8 (peptide)
peptide: H[Aib]QGTFTSDVSKYLDGQAAQEFVAWLLKGC
Human GIP receptor
  In vitro activity compared to native-type peptide (%), vs GIP: < 0.1%
Human GLP-1 receptor
  In vitro activity compared to native-type peptide (%), vs GLP-1: 14.2%
Human GCG receptor
  In vitro activity compared to native-type peptide (%), vs Glucagon: 0.1%

B7: triple agonist of SEQ ID NO: 81 (peptide)
peptide: {Acetyl(2-(4-imidazolyl))}-[Aib]QGTFTSDYSKYLDEKRQKEFVQWLLNTC
modifications: bridge 15-19
Human GIP receptor
  In vitro activity compared to native-type peptide (%), vs GIP: < 0.1%
Human GLP-1 receptor
  In vitro activity compared to native-type peptide (%), vs GLP-1: 7.8%
Human GCG receptor
  In vitro activity compared to native-type peptide (%), vs Glucagon: 0.3%

B8: triple agonist of SEQ ID NO: 79 (peptide)
peptide: H[Aib]EGTFTSDYSIAMDEIHQKDFVNWLLAQKC
modifications: bridge 16-20
Human GIP receptor
  In vitro activity compared to native-type peptide (%), vs GIP: 1.4%
Human GLP-1 receptor
  In vitro activity compared to native-type peptide (%), vs GLP-1: 41.5%
Human GCG receptor
  In vitro activity compared to native-type peptide (%), vs Glucagon: 4.9%

B9: triple agonist of SEQ ID NO: 82 (peptide)
peptide: {Acetyl(2-(4-imidazolyl))}-[Aib]QGTFTSDYSKYLDEKRQKEFVQWLLDTC
modifications: bridge 15-19
Human GIP receptor
  In vitro activity compared to native-type peptide (%), vs GIP: < 0.1%
Human GLP-1 receptor
  In vitro activity compared to native-type peptide (%), vs GLP-1: 9.5%
Human GCG receptor
  In vitro activity compared to native-type peptide (%), vs Glucagon: 1.1%

B10: triple agonist of SEQ ID NO: 71 (peptide)
peptide: Y[Aib]QGTFTSDYSKYLDERACKDFVQWLLDHHPSSGQPPPS
modifications: bridge 16-20
Human GIP receptor
  In vitro activity compared to native-type peptide (%), vs GIP: 94.7%
Human GLP-1 receptor
  In vitro activity compared to native-type peptide (%), vs GLP-1: 90.1%
Human GCG receptor
  In vitro activity compared to native-type peptide (%), vs Glucagon: 12.7%

B11: triple agonist of SEQ ID NO: 64 (peptide)
peptide: Y[Aib]QGTFTSDYSKYLDECAAKEFVQWLLDHHPSSGQPPPS
modifications: bridge 16-20
Human GIP receptor
  In vitro activity compared to native-type peptide (%), vs GIP: 92.9%
Human GLP-1 receptor
  In vitro activity compared to native-type peptide (%), vs GLP-1: 64.6%
Human GCG receptor
  In vitro activity compared to native-type peptide (%), vs Glucagon: 60.1%

B12: triple agonist of SEQ ID NO: 69 (peptide)
peptide: Y[Aib]QGTFTSDYSKCLDERAAKEFVQWLLDHHPSSGQPPPS
modifications: bridge 16-20
Human GIP receptor
  In vitro activity compared to native-type peptide (%), vs GIP: 62.8%
Human GLP-1 receptor
  In vitro activity compared to native-type peptide (%), vs GLP-1: 24.3%
Human GCG receptor
  In vitro activity compared to native-type peptide (%), vs Glucagon: 9.6%

B13: triple agonist of SEQ ID NO: 60 (peptide)
peptide: {Acetyl(2-(4-imidazolyl))}-[Aib]QGTFTSDYSIAMDEKHCKDFVNWLLNTK
modifications: bridge 15-19
Human GIP receptor
  In vitro activity compared to native-type peptide (%), vs GIP: 8.2%
Human GLP-1 receptor
  In vitro activity compared to native-type peptide (%), vs GLP-1: 106%
Human GCG receptor
  In vitro activity compared to native-type peptide (%), vs Glucagon: < 0.1%

B14: triple agonist of SEQ ID NO: 72 (peptide)
peptide: Y[Aib]QGTFTSDCSKYLDERAAKDFVQWLLDHHPSSGQPPPS
modifications: bridge 16-20
Human GIP receptor
  In vitro activity compared to native-type peptide (%), vs GIP: 1.6%
Human GLP-1 receptor
  In vitro activity compared to native-type peptide (%), vs GLP-1: 11.5%
Human GCG receptor
  In vitro activity compared to native-type peptide (%), vs Glucagon: 1%

B15: triple agonist of SEQ ID NO: 9 (peptide)
peptide: H[Aib]QGTFTSDVSKYLDGQAAQEFVAWLLAGC
Human GIP receptor
  In vitro activity compared to native-type peptide (%), vs GIP: < 0.1%
Human GLP-1 receptor
  In vitro activity compared to native-type peptide (%), vs GLP-1: 32.1%
Human GCG receptor
  In vitro activity compared to native-type peptide (%), vs Glucagon: 0.13%

B16: triple agonist of SEQ ID NO: 75 (peptide)
peptide: Y[Aib]QGTFTSDYSKYLDEKAAKEFVQWLLDHHPSSGQPPPSC
modifications: bridge 16-20
Human GIP receptor
  In vitro activity compared to native-type peptide (%), vs GIP: 18%
Human GLP-1 receptor
  In vitro activity compared to native-type peptide (%), vs GLP-1: 35.1%
Human GCG receptor
  In vitro activity compared to native-type peptide (%), vs Glucagon: 8.5%

B17: triple agonist of SEQ ID NO: 61 (peptide)
peptide: {Acetyl(2-(4-imidazolyl))}-[Aib]QGTFTSDYSIAMDEIACKDFVNWLLNTK
modifications: bridge 15-19
Human GIP receptor
  In vitro activity compared to native-type peptide (%), vs GIP: 2.8%
Human GLP-1 receptor
  In vitro activity compared to native-type peptide (%), vs GLP-1: 59.8%
Human GCG receptor
  In vitro activity compared to native-type peptide (%), vs Glucagon: < 0.1%

B18: triple agonist of SEQ ID NO: 7 (peptide)
peptide: H[Aib]QGTFTSDVSKYLDGQAAKEFVAWLLKGC
Human GIP receptor
  In vitro activity compared to native-type peptide (%), vs GIP: < 0.1%
Human GLP-1 receptor
  In vitro activity compared to native-type peptide (%), vs GLP-1: 13.7%
Human GCG receptor
  In vitro activity compared to native-type peptide (%), vs Glucagon: < 0.1%

B19: triple agonist of SEQ ID NO: 68 (peptide)
peptide: Y[Aib]QGTFTSDYSKCLDEKAAKEFVQWLLDHHPSSGQPPPS
modifications: bridge 16-20
Human GIP receptor
  In vitro activity compared to native-type peptide (%), vs GIP: 107%
Human GLP-1 receptor
  In vitro activity compared to native-type peptide (%), vs GLP-1: 27.9%
Human GCG receptor
  In vitro activity compared to native-type peptide (%), vs Glucagon: 8.8%

B20: triple agonist of SEQ ID NO: 63 (peptide)
peptide: {Acetyl(2-(4-imidazolyl))}-[Aib]QGTFTSDCSKYLDERAAQDFVQWLLDGGPSSGAPPPS
Human GIP receptor
  In vitro activity compared to native-type peptide (%), vs GIP: < 0.1%
Human GLP-1 receptor
  In vitro activity compared to native-type peptide (%), vs GLP-1: 15.3%
Human GCG receptor
  In vitro activity compared to native-type peptide (%), vs Glucagon: < 0.1%

B21: triple agonist of SEQ ID NO: 66 (peptide)
peptide: Y[Aib]QGTFTSDYSKYLDECRAKDFVQWLLDHHPSSGQPPPS
modifications: bridge 16-20
Human GIP receptor
  In vitro activity compared to native-type peptide (%), vs GIP: 17.2%
Human GLP-1 receptor
  In vitro activity compared to native-type peptide (%), vs GLP-1: 15.8%
Human GCG receptor
  In vitro activity compared to native-type peptide (%), vs Glucagon: 172%

B22: triple agonist of SEQ ID NO: 83 (peptide)
peptide: {Acetyl(2-(4-imidazolyl))}-[Aib]EGTFTSDYSIAMDEIHQKDFVNWLLAQC
modifications: bridge 15-19
Human GIP receptor
  In vitro activity compared to native-type peptide (%), vs GIP: 0.4%
Human GLP-1 receptor
  In vitro activity compared to native-type peptide (%), vs GLP-1: 47.3%
Human GCG receptor
  In vitro activity compared to native-type peptide (%), vs Glucagon: 1.3%

B23: triple agonist of SEQ ID NO: 80 (peptide)
peptide: H[Aib]EGTFTSDYSIAMDEIHQKDFVDWLLAEKC
modifications: bridge 16-20
Human GIP receptor
  In vitro activity compared to native-type peptide (%), vs GIP: 0.1%
Human GLP-1 receptor
  In vitro activity compared to native-type peptide (%), vs GLP-1: 8.1%
Human GCG receptor
  In vitro activity compared to native-type peptide (%), vs Glucagon: 0%

B24: triple agonist of SEQ ID NO: 70 (peptide)
peptide: Y[Aib]QGTFTSDYSKCLDEKRAKDFVQWLLDHHPSSGQPPPS
modifications: bridge 16-20
Human GIP receptor
  In vitro activity compared to native-type peptide (%), vs GIP: 64.4%
Human GLP-1 receptor
  In vitro activity compared to native-type peptide (%), vs GLP-1: 15.1%
Human GCG receptor
  In vitro activity compared to native-type peptide (%), vs Glucagon: 71.3%

B25: triple agonist of SEQ ID NO: 65 (peptide)
peptide: H[Aib]QGTFTSDYSKCLDEKRAKEFVQWLLDHHPSSGQPPPS
modifications: bridge 16-20
Human GIP receptor
  In vitro activity compared to native-type peptide (%), vs GIP: 11.6%
Human GLP-1 receptor
  In vitro activity compared to native-type peptide (%), vs GLP-1: 95.4%
Human GCG receptor
  In vitro activity compared to native-type peptide (%), vs Glucagon: 25.2%

B26: triple agonist of SEQ ID NO: 84 (peptide)
peptide: {Acetyl(2-(4-imidazolyl))}-[Aib]EGTFTSDYSIAMDEIHQKDFVDWLLAEC
modifications: bridge 15-19
Human GIP receptor
  In vitro activity compared to native-type peptide (%), vs GIP: < 0.1%
Human GLP-1 receptor
  In vitro activity compared to native-type peptide (%), vs GLP-1: 4.2%
Human GCG receptor
  In vitro activity compared to native-type peptide (%), vs Glucagon: < 0.1%

B27: triple agonist of SEQ ID NO: 78 (peptide)
peptide: H[Aib]QGTFTSDYSKYLDEKRQKEFVQWLLDTKC
modifications: bridge 16-20
Human GIP receptor
  In vitro activity compared to native-type peptide (%), vs GIP: 0.12%
Human GLP-1 receptor
  In vitro activity compared to native-type peptide (%), vs GLP-1: 51%
Human GCG receptor
  In vitro activity compared to native-type peptide (%), vs Glucagon: 14%

B28: triple agonist of SEQ ID NO: 73 (peptide)
peptide: {Acetyl(2-(4-imidazolyl))}-[Aib]QGTFTSDYSKYLDECRAKEFVQWLLDHHPSSGQPPPS
modifications: bridge 15-19
Human GIP receptor
  In vitro activity compared to native-type peptide (%), vs GIP: 3%
Human GLP-1 receptor
  In vitro activity compared to native-type peptide (%), vs GLP-1: 22.6%
Human GCG receptor
  In vitro activity compared to native-type peptide (%), vs Glucagon: 5.4%
